Read-outs that look alike come from different tables or passages of the source. Values belong to the binder of their own block, whether it stands above or below them.
How the values were obtained:
[1] = target: T1, human IL-4R (form not stated) (human, UniProt P24394 26-232, limits assumed); test: competition ELISA, hIL-4/IL-4R (plate of PRO1899)
T1 construct: whole entry named; also called hIL-4R

[2] = target: T2, human IL-4R on cells (HEK-Blue IL-4/IL-13 cells, human PBMC, human whole blood) (human, UniProt P24394 26-825); test: cell-based or functional assay
[3] = target: T1, human IL-4R (form not stated); test: competition ELISA, hIL-4/IL-4R (plate of PRO1898)
[4] = target: T3, recombinant human IL-31 protein (Peprotech) (human, UniProt Q6EBC2 24-164); test: cell-based or functional assay
T3 sequence (looked up): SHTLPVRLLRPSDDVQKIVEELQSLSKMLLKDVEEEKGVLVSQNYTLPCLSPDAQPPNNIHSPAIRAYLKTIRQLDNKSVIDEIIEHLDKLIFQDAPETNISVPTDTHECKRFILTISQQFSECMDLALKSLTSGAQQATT

[5] = target: T3, recombinant human IL-31 protein …; test: competitive ELISA, hIL-31/hIL-31RA
Protocol: Potency of the two humanized scFvs was further determined using a competitive ELISA. The potency of each scFv to inhibit the interaction between human IL-31 and human IL-31RA was assessed by an ELISA using the same procedure as described in EP20216938.9.

human IL-31-His [6] = target: T4, human IL-31-His (human, UniProt Q6EBC2 24-164); test: SPR, IL-31-His captured, scFv analyte (30 and 10 nM)
T4 construct: captured via an anti-His tag antibody; also called human IL-31 (scFv SPR); not shown: His tag
T4 sequence (looked up): T3 sequence (looked up)
Protocol: (§1) Affinity of the two humanized scFvs to human and cynomolgus IL-31 was determined by SPR analysis on a T200 device (Biacore, GE Healthcare). Cynomolgus IL-31 was manufactured on demand by Sino Biological since it was not available commercially. Human and cynomolgus IL-31-His was captured via an anti-His tag antibody coupled to a carboxylmethylated dextran surface and the scFvs were injected as analyte. After each analyte injection cycle the sensor chip was regenerated and new antigen was captured. The scFvs were measured using a dose response multi-cycle kinetic assay in a high-throughput mode with two concentrations (30 and 10 nM) diluted in running buffer. Obtained sensorgrams were fitted using a 1:1 binding model.
Affinity of PRO1643 and of the optimized anti-IL-31 scFvs to human IL-31 was determined by SPR analysis on a T200 device (Biacore, GE Healthcare), as described above in section 2.2.2. The scFvs were measured using a dose response multi-cycle kinetic assay in a high-throughput mode with two concentrations (30 and 10 nM) diluted in running buffer. Obtained sensorgrams were fitted using a 1:1 binding model.

human IL-31-His [7] = target: T4, human IL-31-His; test: SPR, IL-31-His captured, scFv analyte, full titration mode
human IL-31-His [8] = target: T4, human IL-31-His; test: SPR, IL-31-His captured, scFv analyte, screening mode
Protocol: as §1

[9] = target: T3, recombinant human IL-31 protein …; test: cell-based or functional assay; remark: listed apart in the source
[10] = target: T2, human IL-4R on cells (HEK-Blue …); test: cell-based or functional assay; remark: listed apart in the source
[11] = target: T2, human IL-4R on cells (HEK-Blue …); test: cell-based or functional assay; remark: listed apart in the source
[12] = target: T3, recombinant human IL-31 protein …; test: cell-based or functional assay; remark: listed apart in the source
[13] = target: T5, recombinant cynomolgus monkey IL-31 (ECD with His Tag, Sino Biological) (cynomolgus monkey); test: SPR, Morrison captured on immobilized human IL-4R-Fc, IL-31 analyte
T5 construct: manufactured on demand by Sino Biological; also called cynomolgus IL-31-His; cyno IL-31

[14] = target: T2, human IL-4R on cells (HEK-Blue …); test: cell-based or functional assay; remark: listed apart in the source
[15] = target: T2, human IL-4R on cells (HEK-Blue …); test: cell-based or functional assay; remark: listed apart in the source
[16] = target: T3, recombinant human IL-31 protein …; test: cell-based or functional assay; remark: listed apart in the source
[17] = target: T6, human IL-4R on transfected HEK293T cells (human, UniProt P24394 26-825); test: flow cytometry, transfected HEK293T cells
T6 construct: whole, on cells; also called human IL-4R-expressing HEK293T cells; not shown: V5 Tag fused to the N-terminus of the expression construct
Text: (§2) To test binding of the Morrison-H and Morrison-L antibodies PRO2198, PRO2199, PRO2206 and PRO2207 to human or cynomolgus IL-4R-expressing HEK293T cells, HEK293T cells were transfected with human and cynomolgus IL-4R plasmids and mock plasmid using Lipofectamine3000. Binding of an antibody targeting V5 Tag, which is fused to the N-terminus of human and cynomolgus IL-4R expression constructs, would confirm successful expression of both targets and was thus used as a positive control for plasma membranous binding. The Morrison-H molecule PRO2077 was used as negative control for cynomolgus IL-4R binding since this molecule had not shown any cross-reactivity to cynomolgus IL-4R (see section 5.3.).
(§3) 50,000 transfected HEK293T cells per well were seeded in a 96-well plate. 5-fold serial dilutions of the Morrison-H and Morrison-L antibodies PRO2198, PRO2199, PRO2206 and PRO2207 and of the control molecule PRO2077, which is not cross-reactive to cynomolgus IL-4R, were added at concentrations ranging from 5,000 to 0.32 ng/ml to the plates and incubated for 60 min at 4° C. on a shaker. Supernatants were removed and detection reagent was added for flow cytometry analysis. The geometric mean of the APC fluorescence intensity of single cells was calculated.

[18] = target: T7, cynomolgus IL-4R on transfected HEK293T cells (cynomolgus monkey, UniProt A0A2K5V580 33-832); test: flow cytometry, transfected HEK293T cells
T7 construct: whole, on cells; also called cynomolgus IL-4R-expressing HEK293T cells; not shown: V5 Tag fused to the N-terminus of the expression construct
T7 sequence (A0A2K5V580 entry or part of it): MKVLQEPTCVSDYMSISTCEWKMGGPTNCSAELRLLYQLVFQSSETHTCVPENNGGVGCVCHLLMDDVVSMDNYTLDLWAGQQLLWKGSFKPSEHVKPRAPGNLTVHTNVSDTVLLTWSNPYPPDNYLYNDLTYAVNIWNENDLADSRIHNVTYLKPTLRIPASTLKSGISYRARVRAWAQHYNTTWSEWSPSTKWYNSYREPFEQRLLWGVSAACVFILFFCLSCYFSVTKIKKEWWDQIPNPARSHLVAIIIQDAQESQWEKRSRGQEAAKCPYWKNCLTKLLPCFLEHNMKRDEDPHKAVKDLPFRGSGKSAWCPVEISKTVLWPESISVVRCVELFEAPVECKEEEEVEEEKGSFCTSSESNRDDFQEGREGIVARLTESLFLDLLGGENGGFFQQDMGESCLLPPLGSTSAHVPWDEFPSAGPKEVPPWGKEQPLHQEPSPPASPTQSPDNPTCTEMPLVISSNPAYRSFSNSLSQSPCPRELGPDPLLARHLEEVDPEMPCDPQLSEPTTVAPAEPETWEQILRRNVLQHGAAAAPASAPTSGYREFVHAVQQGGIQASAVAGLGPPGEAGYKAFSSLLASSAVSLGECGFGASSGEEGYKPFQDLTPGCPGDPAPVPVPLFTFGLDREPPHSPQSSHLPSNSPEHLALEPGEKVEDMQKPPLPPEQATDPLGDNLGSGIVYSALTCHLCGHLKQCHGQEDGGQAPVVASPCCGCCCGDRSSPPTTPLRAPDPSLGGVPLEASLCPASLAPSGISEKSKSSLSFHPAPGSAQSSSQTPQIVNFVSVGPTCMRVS
Text: as §2, §3

[19] = target: T8, recombinant human IL-4R protein (ECD with His Tag, Sino Biological) (human, UniProt P24394 26-232); test: SPR, Morrison captured via anti-human IgG-Fc, IL-4R ECD-His analyte
T8 construct: extracellular domain; bought; also called human IL-4R ECD; not shown: His Tag
Protocol: (§4) Binding kinetics (including affinity) of the bispecific Morrison-H (PRO2198, PRO2199) and Morrison-L (PRO2206, PRO2207) molecules to recombinant human IL-4R protein (ECD with His Tag, Sino Biological) were determined by SPR analysis on a T200 device (Biacore, Cytiva). In this SPR experiment, Morrison molecules were captured via an anti-human IgG-Fc antibody (Human Antibody Capture Kit; Biacore, Cytiva) covalently immobilized to a carboxylmethylated dextran surface (CM5 sensorchip; Biacore, Cytiva) and a titration series of human IL-4R ECD was injected as analyte. After each analyte injection cycle, the sensor chip was regenerated (MgCl₂), and new Morrison antibody was subsequently re-captured. […] The apparent dissociation (kd) and association (kₐ) rate constants and the apparent dissociation equilibrium constant (KD) were calculated with the Biacore analysis software (Biacore Evaluation software Version 3.2, Cytiva) using one-to-one Langmuir binding model and quality of the fits was monitored based on Chi2 and U-value, which are measures for the quality of the curve fitting. The binding level was calculated as the maximum stability binding achieved normalized to the theoretical Rmax. Cross-reactivity to cynomolgus monkey IL-4R was measured using the same setup as for the analysis of human IL-4R kinetics, with the difference that recombinant cynomolgus monkey IL-4R (ECD with His-tag, Acro Biosystems) protein was used as analyte instead of human IL-4R.

[20] = target: T9, recombinant cynomolgus monkey IL-4R (ECD with His-tag, Acro Biosystems) (cynomolgus monkey, UniProt A0A2K5V556 26-232); test: as above
T9 construct: bought; also called cynomolgus IL-4R
T9 sequence (A0A2K5V556 entry or part of it limits assumed): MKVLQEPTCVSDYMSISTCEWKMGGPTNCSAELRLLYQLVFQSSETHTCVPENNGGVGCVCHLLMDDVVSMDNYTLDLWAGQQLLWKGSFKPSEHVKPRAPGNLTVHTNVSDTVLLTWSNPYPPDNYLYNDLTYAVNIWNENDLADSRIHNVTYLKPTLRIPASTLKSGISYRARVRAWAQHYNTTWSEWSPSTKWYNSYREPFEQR
Protocol: as §4

[21] = target: T5, recombinant cynomolgus monkey IL-31 …; test: cell-based or functional assay

IC50 [1]: 6.18 ng/mL | IC50, neutralization of hIL-4 induced signaling, stat-6 reporter gene assay [2]: 1.15 ng/mL | IC50, neutralization of hIL-13 induced signaling, stat-6 reporter gene assay [2]: 1 ng/mL | IC50 [3]: 6.78 ng/mL
B1: dupilumab (antibody, V domains shown)
VH: EVQLVESGGGLEQPGGSLRLSCAGSGFTFRDYAMTWVRQAPGKGLEWVSSISGSGGNTYYADSVKGRFTISRDNSKNTLYLQMNSLRAEDTAVYYCAKDRLSITIRPRYYGLDVWGQGTTVTVSS
VL: DIVMTQSPLSLPVTPGEPASISCRSSQSLLYSIGYNYLDWYLQKSGQSPQLLIYLGSNRASGVPDRFSGSGSGTDFTLKISRVEAEDVGFYYCMQALQTPYTFGQGTKLEIKR

IC50, neutralization of hIL-31-induced signaling in IL-31RA/OSMR dimerization assay [4]: 8.08 ng/mL | IC50 [5]: 4.58 ng/mL | Kd (human IL-31-His [6]): 1.13 nM | koff (human IL-31-His [6]): 0.000653 s⁻¹ | kon (human IL-31-His [6]): 579000 M⁻¹ s⁻¹ | Kd (human IL-31-His [7]): 0.63 nM | koff (human IL-31-His [7]): 0.000516 s⁻¹ | kon (human IL-31-His [7]): 820000 M⁻¹ s⁻¹ | Kd (human IL-31-His [8]): 0.505 nM | koff (human IL-31-His [8]): 0.000447 s⁻¹ | kon (human IL-31-His [8]): 884000 M⁻¹ s⁻¹ | IC50, neutralization of hIL-31-induced signaling in IL-31RA/OSMR dimerization assay [9]: 11.1 ng/mL
B2: PRO1643 (scFv, V domains shown)
VH: QSQLVESGGGLVQPGGSLRLSCAASGFSFSANYWICWVRQAPGKGLEWIVCIYIGSRADTYYAPWAKGRFTISKDNSKNTVYLQMNSLRAEDTAVYFCARFSSGIYDLDRFFLWGQGTLVTVSS
V domain: AFQLTQSPSSLSASVGDRVTITCQASQSIDSWLAWYQQKPGKPPKLLIYQASKLASGVPSRFSGSGSGTDYTLTISSLQPEDFATYYCQTYYGGGHIGWGFGTGTKVTV
notes: anti-IL-31 scFv, full graft; VL entry ends with LCDR3 (no FR4); also called 50-09-D07-sc03

IC50, IL-4-induced CD23 expression, memory B cells [10]: 4.47 nM | IC50, IL-4-induced CD23 expression, monocytes (blood donor 1) [10]: 0.0904 nM | IC50, IL-4-induced CD23 expression, naive B cells [10]: 1.37 nM | IC50, IL-4-induced TARC secretion in human whole blood [11]: < 0.5 nM | IC50 (read off the curve), human IL-31-induced IL-31RA/OSMR dimerization, with an excess of IL-4R extracellular domain in the medium [12]: ~0.2 nM | Kd [13]: 0.01 nM | Mean IC50, human IL-13-induced signaling, stat-6 reporter gene assay [14]: 0.0221 nM | Mean IC50, human IL-4-induced signaling, stat-6 reporter gene assay [15]: 0.0239 nM | Mean IC50, human IL-31-induced signaling, IL-31RA/OSMR dimerization assay [16]: 0.198 nM | EC50 [17]: 1.11 nM | EC50 [18]: 0.97 nM | Kd [19]: 0.291 nM | koff [19]: 0.000101 s⁻¹ | kon [19]: 352000 M⁻¹ s⁻¹ | Kd [20]: 0.144 nM | koff [20]: 4.9e-05 s⁻¹ | kon [20]: 370000 M⁻¹ s⁻¹ | IC50, cynomolgus IL-31-induced IL-31RA/OSMR dimerization (RLU) [table under the graph] [21]: 0.959 nM
B3: PRO2198 (bispecific antibody, human IgG4 S228P, kappa)
light: DIQMTQSPSSLSARVGDRVTITCQASEDIESYLAWYQQKPGKAPKLLIYRASTLAYGVPSRFSGSGSGRDFTLTISSLQPEDFATYYCLGSSYSTGSNIFGQGTKVEIKRTVAAPSVFIFPPSDEQLKSGTASVVCLLNNFYPREAKVQWKVDNALQSGNSQESVTEQDSKDSTYSLSSTLTLSKADYEKHKVYACEVTHQGLSSPVTKSFNRGEC
heavy: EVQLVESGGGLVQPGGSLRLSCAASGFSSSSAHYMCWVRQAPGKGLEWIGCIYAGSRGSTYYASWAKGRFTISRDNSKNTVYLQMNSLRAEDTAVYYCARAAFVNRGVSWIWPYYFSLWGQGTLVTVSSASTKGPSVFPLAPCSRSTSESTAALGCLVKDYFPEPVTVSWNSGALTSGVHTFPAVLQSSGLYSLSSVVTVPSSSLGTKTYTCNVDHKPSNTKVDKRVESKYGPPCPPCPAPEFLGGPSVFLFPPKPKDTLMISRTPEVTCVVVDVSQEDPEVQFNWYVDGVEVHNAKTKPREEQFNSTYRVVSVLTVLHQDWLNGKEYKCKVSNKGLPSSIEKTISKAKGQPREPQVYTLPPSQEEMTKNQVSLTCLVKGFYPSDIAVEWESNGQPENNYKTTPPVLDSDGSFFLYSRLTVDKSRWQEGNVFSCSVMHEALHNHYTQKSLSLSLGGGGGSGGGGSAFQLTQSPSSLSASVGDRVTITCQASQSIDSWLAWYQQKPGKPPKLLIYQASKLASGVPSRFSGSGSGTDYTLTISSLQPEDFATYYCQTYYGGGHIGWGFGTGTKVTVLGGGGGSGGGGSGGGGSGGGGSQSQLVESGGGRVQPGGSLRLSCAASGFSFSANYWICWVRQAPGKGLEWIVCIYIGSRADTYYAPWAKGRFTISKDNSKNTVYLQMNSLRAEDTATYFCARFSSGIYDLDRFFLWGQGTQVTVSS
notes: IgG4 (S228P) Morrison-H, anti-IL-4R Fab arms, anti-IL-31 scFv on the C-terminus of the heavy chain; tetravalent, bispecific; also called Morrison-H; MorrH

— patent US20250282879A1 (CILAG GMBH INTERNATIONAL, published 2025)
